Patent US20240173352A1 (A2 BIOTHERAPEUTICS, published 2024)

Target: HLA-A*02 (on target cells) (human)
Assay: cell-based or functional assay

VLHDDLLEA [HA-1(H) peptide] was tested, and the “EC50 right shift of the NY-ESO-1 TCR by 50 uM HA-1(H) peptide” value was about 30 fold.
